{"source": "patent US11419917B2", "about": "“Treatment for SARS-CoV-2 and other coronaviruses” (priority 2020, dated 2022)", "origin": "cited, not measured here", "key": {"[1]": {"conditions": "in vivo"}, "[2]": {"conditions": "patients treated for 3 days compared to placebo"}}, "note": "“Also recorded” adds a separate entry of the source. Where two headings read alike, the source gives them in different places.", "data": [{"compound": "BNP: B-type natriuretic peptide, a 32-amino acid peptide; generic name Nesiritide", "values": [{"measurement": "half-life", "setting": "[1]", "result": 22, "unit": "min"}, {"measurement": "half-life", "setting": "[1]; listed as B-type NP", "result": 20, "unit": "min"}]}, {"compound": "ANP: A-type natriuretic peptide, a 28-amino acid peptide degraded from pro ANP", "values": [{"measurement": "half-life", "setting": "[1]", "result": "approximately 10 minutes; also recorded: several"}]}, {"compound": "CC[C@H](C)[C@@H]1NC(=O)[C@H](CCCNC(=N)N)NC(=O)[C@H](CC(=O)O)NC(=O)[C@H](CCSC)NC(=O)[C@H](CCCNC(=N)N)NC(=O)CNC(=O)CNC(=O)[C@H](Cc2ccccc2)NC(=O)[C@@H](NC(=O)[C@H](CO)NC(=O)[C@H](CO)NC(=O)[C@H](CCCNC(=N)N)NC(=O)[C@H](CCCNC(=N)N)NC(=O)[C@H](CC(C)C)NC(=O)[C@@H](N)CO)CSSC[C@@H](C(=O)N[C@@H](CC(N)=O)C(=O)N[C@@H](CO)C(=O)N[C@@H](Cc2ccccc2)C(=O)N[C@@H](CCCNC(=N)N)C(=O)N[C@@H](Cc2ccc(O)cc2)C(=O)O)NC(=O)CNC(=O)[C@H](CC(C)C)NC(=O)CNC(=O)[C@H](CO)NC(=O)[C@H](CCC(N)=O)NC(=O)[C@H](C)NC(=O)CNC1=O", "note": "[Carperitide]", "values": [{"measurement": "decrease in infarct size", "setting": "[2]", "result": "~15", "unit": "%"}]}]}
